# Measurements from paper PMC6136348, “In the quest for new targets for pathogen eradication: the adenylosuccinate synthetase from the bacterium Helicobacter pylori” (Journal of Enzyme Inhibition and Medicinal Chemistry, 2018).
# B1: adenylosuccinate synthetase (AdSS) (Helicobacter pylori 26695) (protein)
# chain: MADVVVGIQWGDEGKGKIVDRIAKDYDFVVRYQGGHNAGHTIVHKGVKHSLHLMPSGVLYPKCKNIISSAVVVSVKDLCEEISAFEDLENRLFVSDRAHVILPYHAKKDAFKEKSQNIGTTKKGIGPCYEDKMARSGIRMGDLLDDKILEEKLNAHFKAIEPFKKAYDLGENYEKDLMGYFKTYAPKICPFIKDTTSMLIEANQKGEKILLEGAQGTLLDIDLGTYPFVTSSNTTSASACVSTGLNPKAINEVIGITKAYSTRVGNGPFPSEDTTPMGDHLRTKGAEFGTTTKRPRRCGWLDLVALKYACALNGCTQLALMKLDVLDGIDAIKVCVAYERKGERLEIFPSDLKDCVPIYQTFKGWEKSVGVRKLDDLEPNVREYIRFIEKEVGVKIRLISTSPEREDTIFL
# notes: recombinant protein expressed from pET21b-HPpurA
# Tests used:
# [1] = substrate: N[C@@H](CC(=O)O)C(=O)O; experiment: Michaelis-Menten kinetics of the purified enzyme (Km); format: biochemical, Helicobacter pylori; conditions: Mg2+
# [2] = substrate: Nc1nc2c(ncn2[C@@H]2O[C@H](COP(=O)(O)OP(=O)(O)OP(=O)(O)O)[C@@H](O)[C@H]2O)c(=O)[nH]1; experiment: as above; format: biochemical, Helicobacter pylori; conditions: Mg2+
protein,measurement,setting,value
B1,Km,[1],125.4 ± 7.7 µM
same,Vmax,[1],1.1 µmol/min/mg
same,Km,[2],8.7 ± 0.6 µM
same,Vmax,[2],1.42 µmol/min/mg
